According to patent publication US20210395344A1 (TWIST BIOSCIENCE, published 2021):
Changes are numbered by the printed parent chain.

B1: SARS-CoV-2 variant 1-32 (antibody, V domains shown)
VH: EVQLLESGGGLVQPGGSLRLSCAASGFTFSSYAMYWVRQAPGKGLEWVSAISGSGGSTFYADSVKGRFTISRDNSKNTLYLQMNSLRAEDTAVYYCTRPPYGDYGDYWGQGTLVTVSS
VL: QSALTQPASVSGSPGQSITISCTGTSSDVGGYNLVSWYQQHPGKAPKLMIYEGNKRPSGVSNRFSGSKSGNTASLTISGLQAEDEADYYCCSYAGSSTFPVVFGGGTKLTVL
B2: SARS-CoV-2 variant 1-42 (antibody, V domains shown)
VH: EVQLLESGGGLVQPGGSLRLSCAASGVTFSSYAMSWVRQAPGKGLEWVSAITGSGGSTYYADSVKGRFTISRDNSKNTLYLQMNSLRAEDTAVYYCAKHGSGTIFGVVIAKYYFDYWGQGTLVTVSS
VL: QSALTQPASVSGSPGQSITISCTGTSSDVGRYNLVSWYQQHPGKAPKLMIYEGGKRPSGVSNRFSGSKSGNTASLTISGLQAEDEADYYCCSYASSSTLVFGGGTKLTVL
B3: SARS-CoV-2 variant 1-8 (antibody, V domains shown)
VH: EVQLLESGGGLVQPGGSLRLSCAASGFTFSSYDMSWVRQAPGKGLEWVSVISGSGGSTYYADSVKGRFTISRDNSKNTLYLQMNSLRAEDTAVYYCAKGPLVGWYFDLWGQGTLVTVSS
VL: B2 VL with S27N, R31S, G54S, S95G, S97R, T98Y, L99V
B4: SARS-CoV-2 variant 1-17 (antibody, V domains shown)
VH: EVQLLESGGGLVQPGGSLRLSCAASGFTFSSYAMYWVRQAPGKGLEWVSAISGSAGSTYYADSVKGRFTISRDNSKNTLYLQMNSLRAEDTAVYYCARDTNDFWSGYSIFDPWGQGTLVTVSS
VL: B2 VL with V29I, R31S, G54T, S95G, S97R, L99Y
B5: SARS-CoV-2 variant 1-29 (antibody, V domains shown)
VH: B4 VH
VL: B2 VL with V29I, R31S, G54T, S95G, S97R, L99Y
B6: SARS-CoV-2 variant 1-4 (antibody, V domains shown)
VH: EVQLLESGGGLVQPGGSLRLSCAASGFTFSSQAMSWVRQAPGKGLEWVSAISGSGGGTYYADSVKGRFTISRDNSKNTLYLQMNSLRAEDTAVYYCAKDRRFGEFDPWGQGTLVTVSS
VL: QSALTQPASVSGSPGQSITISCTGTSSDVGTYNLVSWYQQHPGKAPKLMIYEGSQRPSGVSNRFSGSKSGNTASLTISGLQAEDEADYYCCSYAGSSSFVVFGGGTKLTVL
B7: SARS-CoV-2 variant 1-30 (antibody, V domains shown)
VH: B1 VH with Y35T
VL: B6 VL with S27R, T31S, S54T, Q55K, S97R, S98T, F99P
B8: SARS-CoV-2 variant 1-10 (antibody, V domains shown)
VH: B3 VH
VL: B6 VL with D28N, T31S, S54T, Q55K
B9: SARS-CoV-2 variant 1-27 (antibody, V domains shown)
VH: EVQLLESGGGLVQPGGSLRLSCAASGFTFSSYAMTWVRQAPGKGLEWVSAISGSGGGTYYADSVKGRFTISRDNSKNTLYLQMNSLRAEDTAVYYCASSSSWQFDYWGQGTLVTVSS
VL: B6 VL with D28Y, T31H, Q55R, S97Y, S98T, F99H, V100Y
B10: SARS-CoV-2 variant 1-31 (antibody, V domains shown)
VH: B1 VH with Y35N
VL: B6 VL with T31K, S97R, S98T, F99P
B11: SARS-CoV-2 variant 1-9 (antibody, V domains shown)
VH: B3 VH
VL: B6 VL with T31D, Q55N
B12: SARS-CoV-2 variant 1-7 (antibody, V domains shown)
VH: B3 VH
VL: B6 VL with V29F, T31S, S54N, Q55K, S98T
B13: SARS-CoV-2 variant 1-33 (antibody, V domains shown)
VH: B1 VH with Y35I
VL: B6 VL with T31S, V35L, G53A, Q55K, S97R, S98T, F99P
B14: SARS-CoV-2 variant 1-5 (antibody, V domains shown)
VH: B6 VH
VL: B6 VL with D28G, T31S, G53A, Q55K, S97Y, S98T, V100A
B15: SARS-CoV-2 variant 1-28 (antibody, V domains shown)
VH: B9 VH with A33G, T35S
VL: B6 VL with D28G, T31S, S98T, F99H, V100Y
B16: SARS-CoV-2 variant 1-22 (antibody, V domains shown)
VH: EVQLLESGGGLVQPGGSLRLSCAASGFTFSSYAMNWVRQAPGKGLEWVSIISGSGGSTYYADSVKGRFTISRDNSKNTLYLQMNSLRAEDTAVYYCAREGYRDYLWYFDLWGQGTLVTVSS
VL: QSALTQPASVSGSPGQSITISCTGTSTDVGSYNLVSWYQQHPGKAPKLMIYEGSQRPSGVSNRFSGSKSGNTASLTISGLQAEDEADYYCCSYAGSSTVFGGGTKLTVL
B17: SARS-CoV-2 variant 1-21 (antibody, V domains shown)
VH: B16 VH with A33T, N35S
VL: QSALTQPASVSGSPGQSITISCTGTSSDVGSNNLVSWYQQHPGKAPKLMIYEGNKRPSGVSNRFSGSKSGNTASLTISGLQAEDEADYYCCSYAGSVVFGGGTKLTVL
B18: SARS-CoV-2 variant 1-24 (antibody, V domains shown)
VH: B16 VH
VL: B16 VL with T27S, S31Y, S54N, Q55K, S96G, T98V

Molecular target: T1, SARS-CoV-2 S1 (subunit 1) protein (SARS-CoV-2, UniProt P0DTC2 16-685)
T1 construct: also called biotinylated SARS-CoV-2 S1
Test: phage ELISA

Going from B1 to B2, the “screening ELISA (Avg), fold over background” value (shortened to “screening ELISA (Avg), fold”) rises from 17.9 fold over background to 34.5 fold over background.

First: B3
Second: B4
The “screening ELISA (Avg), fold” value of the first is lower: 19.3 fold over background for the first, 27.4 fold over background for the second.

Going from B5 to B6, the “screening ELISA (Avg), fold” value falls from 23.8 fold over background to 20.6 fold over background.

Compared with B7, B8 is lower in “screening ELISA (Avg), fold” value: 29.5 fold over background for the first, 16.9 fold over background for the second.

Going from B9 to B10, the “screening ELISA (Avg), fold” value falls from 27.2 fold over background to 20.7 fold over background.

First: B11
Second: B12
The “screening ELISA (Avg), fold” value of the first is lower: 18.5 fold over background for the first, 22.5 fold over background for the second.

First: B13
Second: B14
The “screening ELISA (Avg), fold” value of the first is lower: 17.6 fold over background for the first, 20.6 fold over background for the second.

Going from B15 to B16, the “screening ELISA (Avg), fold” value rises from 17.7 fold over background to 40.6 fold over background.

Compared with B17, B18 is lower in “screening ELISA (Avg), fold” value: 47.6 fold over background for the first, 32.9 fold over background for the second.

Molecular target: T2, COVID S1 RBD Fc fusion (Antigen 1) (SARS-CoV-2, UniProt P0DTC2 319-541)
T2 construct: domain: RBD
Test: phage ELISA

Going from B2 to B3, the “specificity ELISA, fold over background” value falls from 20.8 fold over background to 11.2 fold over background.

Compared with B4, B8 is lower in “specificity ELISA, fold over background” value: 20.1 fold over background for the first, 17.4 fold over background for the second.

Going from B11 to B12, the “specificity ELISA, fold over background” value falls from 9.8 fold over background to 3.3 fold over background.

First: B16
Second: B17
The “specificity ELISA, fold over background” value of the first is higher: 26.5 fold over background for the first, 14.8 fold over background for the second.

For B18, the “specificity ELISA, fold over background” value was 11 fold over background.

Compared with B2, B3 is higher in “specificity ELISA, percent binding relative to Acro S1” value: 91.4% for the first, 92.9% for the second.

First: B4
Second: B8
The “specificity ELISA, percent binding relative to Acro S1” value of the first is lower: 79.8% for the first, 100% for the second.

Compared with B11, B12 is lower in “specificity ELISA, percent binding relative to Acro S1” value: 91.1% for the first, 48.7% for the second.

First: B16
Second: B17
The “specificity ELISA, percent binding relative to Acro S1” value of the first is higher: 81.2% for the first, 75.7% for the second.

In the case of B18, the “specificity ELISA, percent binding relative to Acro S1” value is reported as 85.4%.

Molecular target: S1-Fc (SARS-CoV-2, UniProt P0DTC2 16-685)
Test: phage ELISA

First: B1
Second: B5
The “specificity ELISA, fold over background” value of the first is higher: 4 fold over background for the first, 1 fold over background for the second.

Going from B6 to B7, the “specificity ELISA, fold over background” value rises from 0.9 fold over background to 5.6 fold over background.

Compared with B9, B10 is higher in “specificity ELISA, fold over background” value: 1.3 fold over background for the first, 15.7 fold over background for the second.

Compared with B13, B14 is lower in “specificity ELISA, fold over background” value: 3 fold over background for the first, 1.2 fold over background for the second.

For B15, the “specificity ELISA, fold over background” value was 1.1 fold over background.

Compared with B1, B5 is higher in “specificity ELISA, percent binding relative to Acro S1” value: 35.3% for the first, 94% for the second.

First: B6
Second: B7
The “specificity ELISA, percent binding relative to Acro S1” value of the first is higher: 90.8% for the first, 33.3% for the second.

Compared with B9, B10 is lower in “specificity ELISA, percent binding relative to Acro S1” value: 84.8% for the first, 51.6% for the second.

Compared with B13, B14 is higher in “specificity ELISA, percent binding relative to Acro S1” value: 42.1% for the first, 82.9% for the second.

With B15 the “specificity ELISA, percent binding relative to Acro S1” value was 110%.

Molecular target: T3, COVID S1 RBM Fc fusion (Antigen 2) (SARS-CoV-2, UniProt P0DTC2 437-508)
T3 construct: domain: RBM
Test: phage ELISA

First: B1
Second: B2
The “specificity ELISA, fold over background” value of the first is higher: 1.1 fold over background for the first, 1 fold over background for the second.

First: B3
Second: B4
The “specificity ELISA, fold over background” value of the first is lower: 1.2 fold over background for the first, 1.3 fold over background for the second.

First: B5
Second: B6
The “specificity ELISA, fold over background” value of the first is lower: 0.9 fold over background for the first, 1.1 fold over background for the second.

Going from B7 to B8, the “specificity ELISA, fold over background” value falls from 1.4 fold over background to 1.1 fold over background.

Compared with B9, B10 is lower in “specificity ELISA, fold over background” value: 1.6 fold over background for the first, 1.2 fold over background for the second.

First: B11
Second: B12
The “specificity ELISA, fold over background” value of the first is lower: 1 fold over background for the first, 1.6 fold over background for the second.

First: B13
Second: B14
The “specificity ELISA, fold over background” value of the first is lower: 1 fold over background for the first, 1.4 fold over background for the second.

First: B15
Second: B16
The “specificity ELISA, fold over background” value of the first is lower: 1.2 fold over background for the first, 1.5 fold over background for the second.

Going from B17 to B18, the “specificity ELISA, fold over background” value falls from 1.4 fold over background to 1.3 fold over background.

Going from B1 to B2, the “specificity ELISA, percent binding relative to Acro S1” value falls from 9.5% to 4.2%.

First: B3
Second: B4
The “specificity ELISA, percent binding relative to Acro S1” value of the first is higher: 10.3% for the first, 5.2% for the second.

First: B5
Second: B6
The “specificity ELISA, percent binding relative to Acro S1” value of the first is lower: 78.3% for the first, 105% for the second.

Compared with B7, B8 is lower in “specificity ELISA, percent binding relative to Acro S1” value: 8.5% for the first, 6.2% for the second.

Compared with B9, B10 is lower in “specificity ELISA, percent binding relative to Acro S1” value: 109% for the first, 3.8% for the second.

Compared with B11, B12 is higher in “specificity ELISA, percent binding relative to Acro S1” value: 9.3% for the first, 23% for the second.

Compared with B13, B14 is higher in “specificity ELISA, percent binding relative to Acro S1” value: 14.6% for the first, 92% for the second.

Going from B15 to B16, the “specificity ELISA, percent binding relative to Acro S1” value falls from 124% to 4.7%.

Compared with B17, B18 is higher in “specificity ELISA, percent binding relative to Acro S1” value: 7% for the first, 10.3% for the second.
